4 substances from patent US20180296689A1 can be followed below.

The target in assay [1] is TROP-2 (EGP-1), human, on tumor cell lines (human) (UniProt P09758). Nature of the assay: cell binding on TROP-2-positive PC-3 human prostate carcinoma cells, three separate occasions.
The target of assay [2] is Human neonatal receptor (FcRn) (human) (UniProt P55899). In words: SPR (BIACore), low density FcRn biosensor chip, three runs of five dilutions. Background: In SPR one partner is held on a chip, and binding of the other changes the refractive index at the surface.
Human neonatal receptor (FcRn) (human), sequence (P55899 24-297 limits assumed): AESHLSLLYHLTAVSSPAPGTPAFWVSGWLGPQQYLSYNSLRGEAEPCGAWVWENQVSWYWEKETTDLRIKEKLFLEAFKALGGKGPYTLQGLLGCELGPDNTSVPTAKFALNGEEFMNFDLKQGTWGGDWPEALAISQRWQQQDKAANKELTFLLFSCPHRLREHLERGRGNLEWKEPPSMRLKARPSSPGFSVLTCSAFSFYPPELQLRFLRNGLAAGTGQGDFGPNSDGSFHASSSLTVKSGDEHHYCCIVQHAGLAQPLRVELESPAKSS
Assay [3] deals with CD74 (invariant chain, Ii), human, on tumor cell lines (human) (UniProt P04233). Nature of the assay: flow cytometry, surface and cytoplasmic (permeabilized), Hep-G2 cells. For orientation: A flow cytometer gives signals particle by particle.
CD74 (invariant chain, Ii), human, on tumor cell lines (human), sequence (P04233 whole entry, change not shown): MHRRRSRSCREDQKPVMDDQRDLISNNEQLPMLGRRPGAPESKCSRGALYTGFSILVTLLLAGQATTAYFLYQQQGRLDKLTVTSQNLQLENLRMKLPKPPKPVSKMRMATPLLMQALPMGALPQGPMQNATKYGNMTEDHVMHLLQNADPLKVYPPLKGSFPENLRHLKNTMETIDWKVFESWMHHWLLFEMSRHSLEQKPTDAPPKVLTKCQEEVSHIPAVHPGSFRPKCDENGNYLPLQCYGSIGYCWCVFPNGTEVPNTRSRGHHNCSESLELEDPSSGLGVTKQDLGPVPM
For assay [4] the target is unchanged. Nature of the assay: flow cytometry, surface only, NCI-N87 cells.
For assay [5] the target is unchanged. Nature of the assay: flow cytometry, surface and cytoplasmic (permeabilized), Capan-1 cells.
The target is the same in assay [6]. Nature of the assay: flow cytometry, surface only, Hs746T cells.
For assay [7] the target is unchanged. Nature of the assay: flow cytometry, surface and cytoplasmic (permeabilized), HuH-7 cells.
The target is the same in assay [8]. Nature of the assay: flow cytometry, surface only, Capan-1 cells.
Assay [9] has the same target. In words: flow cytometry, surface only, Hep-G2 cells.
For assay [10] the target is unchanged. Nature of the assay: flow cytometry, surface only, Raji cells.
The target is the same in assay [11]. Nature of the assay: flow cytometry, surface only, HuH-7 cells.
Assay [12] has the same target. In words: flow cytometry, surface and cytoplasmic (permeabilized), A-375 cells.
Assay [13] has the same target. Nature of the assay: flow cytometry, surface and cytoplasmic (permeabilized), Hs746T cells.
Assay [14] shares this target. In words: cell binding to antigen-positive cells (cell line not given).
Assay [15] shares this target. In words: flow cytometry, surface and cytoplasmic (permeabilized), Raji cells.
For assay [16] the target is unchanged. In words: flow cytometry, surface and cytoplasmic (permeabilized), NCI-N87 cells.
For assay [17] the target is unchanged. Nature of the assay: flow cytometry, surface only, A-375 cells.

Usually Kd stands for a measure of binding affinity in units of concentration. Read a high Kd as weaker binding.

TROP-2 (EGP-1), human, on tumor cell lines (human), sequence (P09758 27-323): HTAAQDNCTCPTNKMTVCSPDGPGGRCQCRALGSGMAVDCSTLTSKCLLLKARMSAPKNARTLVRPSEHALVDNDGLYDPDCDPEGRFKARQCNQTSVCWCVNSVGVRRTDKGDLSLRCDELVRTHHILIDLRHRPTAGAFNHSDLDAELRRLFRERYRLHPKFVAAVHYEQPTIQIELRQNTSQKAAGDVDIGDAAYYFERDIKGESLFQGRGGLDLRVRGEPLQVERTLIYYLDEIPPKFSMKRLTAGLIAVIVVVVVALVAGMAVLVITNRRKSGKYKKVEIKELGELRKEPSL

As for “IMMU-132 (hRS7-CL2A-SN-38 antibody-drug conjugate)”, the Kd is 0.658 nM in assay [1] and 92.4 nM in assay [2].
Regarding “Milatuzumab (hLL1, humanized anti-CD74 IgG1 monoclonal antibody, unconjugated)”, the MFI in assay [3] amounted to 156 MFI; in assay [4], 5 MFI; in assay [5], 248 MFI; in assay [6], 17 MFI; in assay [7] it was 114 MFI; in [8], 22 MFI. Besides, the MFI is 9 MFI in [9]; 59 MFI in assay [10]; 8 MFI in assay [11]; 185 MFI in [12]; 144 MFI in assay [13]; 143 MFI in [15]. The MFI in [16] was determined as 220 MFI; in [17], 16 MFI. Also, the MFI Ratio hLL1:bkgd in assay [3] amounted to 31.2; in assay [4], 1.3; in [5], 49.6; in assay [6], 2.1; in [7] it was 28.5; in [8], 1.8. Further, the MFI Ratio hLL1:bkgd in assay [9] was determined as 1.5; in assay [10], 19.6; in [11], 1.6; in assay [12], 30.8; in assay [13] it was 28.8; in assay [15], 28.6. Besides, the MFI Ratio hLL1:bkgd in assay [16] is 36.7; in assay [17], 5.3. In assay [14], this substance displayed a Kd of 0.77 nM.
In [14], “milatuzumab-CL2A-SN-38 conjugate (antibody)” had a Kd of 0.59 nM.
Still for that read-out and setting: the same measure for “milatuzumab-CL2E-SN-38 conjugate (antibody)”: 0.8 nM.
